Values of other authors in PMC3022542.
Like-named read-outs stand apart in the source and are kept apart here.

Experiments:
[1] = biological target: importin α5 (Homo sapiens) (UniProt P52294); assay: isothermal titration calorimetry
[2] = biological target: importin α5 (Homo sapiens) (UniProt P52294); assay: isothermal titration calorimetry; remark: listed apart in the source

UniProt P52294, sequence (P52294 whole entry): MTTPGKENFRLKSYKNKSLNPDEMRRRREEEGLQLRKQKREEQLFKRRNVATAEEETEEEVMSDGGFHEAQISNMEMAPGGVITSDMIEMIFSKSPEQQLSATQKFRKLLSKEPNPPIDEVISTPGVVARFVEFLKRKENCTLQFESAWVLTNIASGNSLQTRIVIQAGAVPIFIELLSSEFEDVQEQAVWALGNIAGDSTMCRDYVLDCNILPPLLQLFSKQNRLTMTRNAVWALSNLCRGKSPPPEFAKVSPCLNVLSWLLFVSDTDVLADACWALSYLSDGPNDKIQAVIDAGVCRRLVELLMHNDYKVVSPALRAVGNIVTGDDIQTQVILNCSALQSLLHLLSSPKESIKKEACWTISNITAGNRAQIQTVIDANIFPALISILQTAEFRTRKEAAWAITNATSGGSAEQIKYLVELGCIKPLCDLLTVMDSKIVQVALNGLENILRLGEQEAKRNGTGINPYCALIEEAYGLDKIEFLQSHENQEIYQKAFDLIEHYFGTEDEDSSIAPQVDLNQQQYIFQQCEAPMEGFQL

Substance: EBNA-1 NLS peptide NLS (from UniProt P03211)
- Kd [1]: 3 µM
- Kd [2]: 60 µM
